In data set [1] the test system is HeLa Kyoto. The experiment in a line: thermal stability score vs G1/S (z-score of summed log2 fold changes over temperatures); higher = more thermally stable than in G1/S.
Data set [2] deals with HeLa Kyoto. In words: solubility in G1/S (NP-40 vs SDS abundance) (log2 ratio); higher = more soluble. As to conditions: cell cycle stage: G1/S.
For data set [3], the system named is HeLa Kyoto. In words: melting temperature (median over replicates), in situ; higher = more thermally stable.
For data set [4], the system named is HeLa Kyoto. The experiment in a line: solubility change mitosis vs G1/S (difference of NP-40 vs SDS log2 ratios) (log2 ratio difference); higher = more soluble in mitosis.
Setting [5] is: cell cycle stage: early G1 (4.5 h after nocodazole release).
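Throughout, for melting temperature (median over replicates), in situ: HeLa Kyoto cells synchronized by double thymidine or nocodazole block, proteins quantified by TMT10plex mass spectrometry, three independent biological replicates.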
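Throughout, for solubility change mitosis vs G1/S (difference of NP-40 vs SDS log2 ratios): synchronized HeLa Kyoto cells (double thymidine block for G1/S, nocodazole release for mitosis), protein amounts in NP-40 versus SDS lysates quantified by mass spectrometry, three biological replicates.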
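Throughout, for solubility in G1/S (NP-40 vs SDS abundance): HeLa Kyoto cells arrested at G1/S by double thymidine block, proteins quantified by TMT10plex mass spectrometry in mild NP-40 versus SDS extracts, three biological replicates.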
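Throughout, for thermal stability score vs G1/S (z-score of summed log2 fold changes over temperatures): synchronized HeLa Kyoto cells, proteins quantified by TMT10plex mass spectrometry, three biological replicates, mitosis taken 0.5 h after nocodazole release, G1/S directly after double thymidine block.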

Take “MRSIRSFANDDRHVMVKHSTIYPSPEELEAVQNMVSTVECALKHVSDWLDETNKGTKTEGETEVKKDEAGENYSKDQGGRTLCGVMRIGLVAKGLLIKDDMDLELVLMCKDKPTETLLNTVKDNLPIQIQKLTEEKYQVEQCVNEASIIIRNTKEPTLTLKVILTSPLIRDELEKKDGENVSMKDPPDLLDRQKCLNALASLRHAKWFQARANGLKSCVIVLRILRDLCNRVPTWAPLKGWPLELICEKSIGTCNRPLGAGEALRRVMECLASGILLPGGPGLHDPCERDPTDALSYMTIQQKEDITHSAQHALRLSAFGQIYKVLEMDPLPSSKPFQKYSWSVTDKEGAGSSALKRPFEDGLGDDKDPNKKMKRNLRKILDSKAIDLMNALMRLNQIRPGLQYKLLSQSGPVHAPVFTMSVDVDGTTYEASGPSKKTAKLHVAVKVLQAMGYPTGFDADIECMSSDEKSDNESKNETVSSNSSNNTGNSTTETSSTLEVRTQGPILTASGKNPVMELNEKRRGLKYELISETGGSHDKRFVMEVEVDGQKFRGAGPNKKVAKASAALAALEKLFSGPNAANNKKKKIIPQAKGVVNTAVSAAVQAVRGRGRGTLTRGAFVGATAAPGYIAPGYGTPYGYSTAAPAYGLPKRMVLLPVMKFPTYPVPHYSFF [STRBP]”: the values for the thermal stability score in the data set on HeLa Kyoto [1] (setting [5]) and in the data set on HeLa Kyoto [1] (cell cycle stage: mitosis) were -0.506 and -0.00226, respectively. Moreover, the “solubility in G1/S (log2)” value with HeLa Kyoto [2] is -0.314. Moreover, the melting temperature was determined as 50.5 °C in the data set on HeLa Kyoto [3] (cell cycle stage: G1/S) and 52.5 °C with HeLa Kyoto [3] (cell cycle stage: mitosis). In addition, the “solubility change mitosis (log2)” value in the data set on HeLa Kyoto [4] was -0.0522.
Consider “MRSRVAVRACHKVCRCLLSGFGGRVDAGQPELLTERSSPKGGHVKSHAELEGNGEHPEAPGSGEGSEALLEICQRRHFLSGSKQQLSRDSLLSGCHPGFGPLGVELRKNLAAEWWTSVVVFREQVFPVDALHHKPGPLLPGDSAFRLVSAETLREILQDKELSKEQLVAFLENVLKTSGKLRENLLHGALEHYVNCLDLVNKRLPYGLAQIGVCFHPVFDTKQIRNGVKSIGEKTEASLVWFTPPRTSNQWLDFWLRHRLQWWRKFAMSPSNFSSSDCQDEEGRKGNKLYYNFPWGKELIETLWNLGDHELLHMYPGNVSKLHGRDGRKNVVPCVLSVNGDLDRGMLAYLYDSFQLTENSFTRKKNLHRKVLKLHPCLAPIKVALDVGRGPTLELRQVCQGLFNELLENGISVWPGYLETMQSSLEQLYSKYDEMSILFTVLVTETTLENGLIHLRSRDTTMKEMMHISKLKDFLIKYISSAKNV [POLG2]”, for which the thermal stability score in the data set with HeLa Kyoto [1] (setting [5]) came to 0.753; in the data set with HeLa Kyoto [1] (cell cycle stage: mitosis) it was 1.26. Moreover, the “solubility in G1/S (log2)” value in the data set on HeLa Kyoto [2] is -0.0655. Further, in the data set with HeLa Kyoto [3] (cell cycle stage: mitosis), the melting temperature came out at 54.6 °C. Besides, the “solubility change mitosis (log2)” value with HeLa Kyoto [4] came to 0.206.
On to “MRTDSGARLEEGHLRPPRALPPVPSQDDIPLSRPKKKKPRTKNTPASASLEGLAQTAGRRPSEGNEPSTKELKEHPEAPVQRRQKKTRLPLELETSSTQKKSSSSSLLRNENGIDAEPAEEAVIQKPRRKTKKTQPAELQYANELGVEDEDIITDEQTTVEQQSVFTAPTGISQPVGKVFVEKSRRFQAADRSELIKTTENIDVSMDVKPSWTTRDVALTVHRAFRMIGLFSHGFLAGCAVWNIVVIYVLAGDQLSNLSNLLQQYKTLAYPFQSLLYLLLALSTISAFDRIDFAKISVAIRNFLALDPTALASFLYFTALILSLSQQMTSDRIHLYTPSSVNGSLWEAGIEEQILQPWIVVNLVVALLVGLSWLFLSYRPGMDLSEELMFSSEVEEYPDKEKEIKASS [TMEM237]”, for which the results for the thermal stability score with HeLa Kyoto [1] (setting [5]) and in the data set on HeLa Kyoto [1] (cell cycle stage: mitosis) were -4.81 and -5.57, respectively. The “solubility in G1/S (log2)” value with HeLa Kyoto [2] is -0.0506. Moreover, the melting temperature in the data set on HeLa Kyoto [3] (cell cycle stage: G1/S) was determined as 54.9 °C; in the data set on HeLa Kyoto [3] (cell cycle stage: mitosis), 55.4 °C. Moreover, in the data set with HeLa Kyoto [4], the “solubility change mitosis (log2)” value was -0.0698.
For “MSAEVKVTGQNQEQFLLLAKSAKGAALATLIHQVLEAPGVYVFGELLDMPNVRELAESDFASTFRLLTVFAYGTYADYLAEARNLPPLTEAQKNKLRHLSVVTLAAKVKCIPYAVLLEALALRNVRQLEDLVIEAVYADVLRGSLDQRNQRLEVDYSIGRDIQRQDLSAIARTLQEWCVGCEVVLSGIEEQVSRANQHKEQQLGLKQQIESEVANLKKTIKVTTAAAAAATSQDPEQHLTELREPAPGTNQRQPSKKASKGKGLRGSAKIWSKSN [COPS7A]”, the thermal stability score with HeLa Kyoto [1] (setting [5]) was -1.47; in the data set on HeLa Kyoto [1] (cell cycle stage: mitosis) it was -1.53. For the same sequence, the “solubility in G1/S (log2)” value in the data set with HeLa Kyoto [2] came to 0.458. In addition, the melting temperature in the data set with HeLa Kyoto [3] (cell cycle stage: G1/S) was 53.9 °C; in the data set on HeLa Kyoto [3] (cell cycle stage: mitosis) it was 54 °C. Moreover, the “solubility change mitosis (log2)” value in the data set on HeLa Kyoto [4] came out at 0.216.
In the case of “MSAFDTNPFADPVDVNPFQDPSVTQLTNAPQGGLAEFNPFSETNAATTVPVTQLPGSSQPAVLQPSVEPTQPTPQAVVSAAQAGLLRQQEELDRKAAELERKERELQNTVANLHVRQNNWPPLPSWCPVKPCFYQDFSTEIPADYQRICKMLYYLWMLHSVTLFLNLLACLAWFSGNSSKGVDFGLSILWFLIFTPCAFLCWYRPIYKAFRSDNSFSFFVFFFVFFCQIGIYIIQLVGIPGLGDSGWIAALSTLDNHSLAISVIMMVVAGFFTLCAVLSVFLLQRVHSLYRRTGASFQQAQEEFSQGIFSSRTFHRAASSAAQGAFQGN [SCAMP2]”, the thermal stability score with HeLa Kyoto [1] (setting [5]) is -1.72; with HeLa Kyoto [1] (cell cycle stage: mitosis), -3.07. In the data set with HeLa Kyoto [2], the “solubility in G1/S (log2)” value turned out to be 0.177. For the same sequence, the figures for the melting temperature in the data set with HeLa Kyoto [3] (cell cycle stage: G1/S) and in the data set with HeLa Kyoto [3] (cell cycle stage: mitosis) were 58.4 °C and 56.6 °C, respectively. Also, the “solubility change mitosis (log2)” value in the data set on HeLa Kyoto [4] was -0.103.
For the sequence “MSAPDEGRRDPPKPKGKTLGSFFGSLPGFSSARNLVANAHSSARARPAADPTGAPAAEAAQPQAQVAAHPEQTAPWTEKELQPSEKMVSGAKDLVCSKMSRAKDAVSSGVASVVDVAKGVVQGGLDTTRSALTGTKEVVSSGVTGAMDMAKGAVQGGLDTSKAVLTGTKDTVSTGLTGAVNVAKGTVQAGVDTTKTVLTGTKDTVTTGVMGAVNLAKGTVQTGVETSKAVLTGTKDAVSTGLTGAVNVARGSIQTGVDTSKTVLTGTKDTVCSGVTGAMNVAKGTIQTGVDTSKTVLTGTKDTVCSGVTGAMNVAKGTIQTGVDTSKTVLTGTKDTVCSGVTGAMNVAKGTIQTGVDTTKTVLTGTKNTVCSGVTGAVNLAKEAIQGGLDTTKSMVMGTKDTMSTGLTGAANVAKGAMQTGLNTTQNIATGTKDTVCSGVTGAMNLARGTIQTGVDTTKIVLTGTKDTVCSGVTGAANVAKGAVQGGLDTTKSVLTGTKDAVSTGLTGAVNVAKGTVQTGVDTTKTVLTGTKDTVCSGVTSAVNVAKGAVQGGLDTTKSVVIGTKDTMSTGLTGAANVAKGAVQTGVDTAKTVLTGTKDTVTTGLVGAVNVAKGTVQTGMDTTKTVLTGTKDTIYSGVTSAVNVAKGAVQTGLKTTQNIATGTKNTFGSGVTSAVNVAKGAAQTGVDTAKTVLTGTKDTVTTGLMGAVNVAKGTVQTSVDTTKTVLTGTKDTVCSGVTGAANVAKGAIQGGLDTTKSVLTGTKDAVSTGLTGAVKLAKGTVQTGMDTTKTVLTGTKDAVCSGVTGAANVAKGAVQMGVDTAKTVLTGTKDTVCSGVTGAANVAKGAVQTGLKTTQNIATGTKNTLGSGVTGAAKVAKGAVQGGLDTTKSVLTGTKDAVSTGLTGAVNLAKGTVQTGVDTSKTVLTGTKDTVCSGVTGAVNVAKGTVQTGVDTAKTVLSGAKDAVTTGVTGAVNVAKGTVQTGVDASKAVLMGTKDTVFSGVTGAMSMAKGAVQGGLDTTKTVLTGTKDAVSAGLMGSGNVATGATHTGLSTFQNWLPSTPATSWGGLTSSRTTDNGGEQTALSPQEAPFSGISTPPDVLSVGPEPAWEAAATTKGLATDVATFTQGAAPGREDTGLLATTHGPEEAPRLAMLQNELEGLGDIFHPMNAEEQAQLAASQPGPKVLSAEQGSYFVRLGDLGPSFRQRAFEHAVSHLQHGQFQARDTLAQLQDCFRLIEKAQQAPEGQPRLDQGSGASAEDAAVQEERDAGVLSRVCGLLRQLHTAYSGLVSSLQGLPAELQQPVGRARHSLCELYGIVASAGSVEELPAERLVQSREGVHQAWQGLEQLLEGLQHNPPLSWLVGPFALPAGGQ [PLIN4]”, the thermal stability score was found to be 1.29 in the data set on HeLa Kyoto [1] (setting [5]) and 2.31 with HeLa Kyoto [1] (cell cycle stage: mitosis). The “solubility in G1/S (log2)” value in the data set with HeLa Kyoto [2] was 0.21. Also, the melting temperature with HeLa Kyoto [3] (cell cycle stage: G1/S) was found to be 52.4 °C; in the data set with HeLa Kyoto [3] (cell cycle stage: mitosis), 52.3 °C. Moreover, in the data set on HeLa Kyoto [4], the “solubility change mitosis (log2)” value was -0.0221.

Values taken from the supplement of paper PMC5998384.
